# Measured values: patent US20070009989A1, “Synthetic heparanase molecules and uses thereof” (priority 2003, published 2007)
# Columns and labels:
# [1] = target: T1, hepGS3 single chain construct produced in insect cells (Homo sapiens, UniProt Q9Y251, DEL111-157/INS109GSGSG/K307R); assay: Heparin titration in the fluorimetric heparanase activity assay, hepGS3; format: biochemical
# T1 construct: made in house; host or cells: Sf9 insect cells (baculovirus, Bac to Bac)
# T1 sequence (Q9Y251 with tags, fused parts or gaps INS109GSGSG/DEL111-157/K307R): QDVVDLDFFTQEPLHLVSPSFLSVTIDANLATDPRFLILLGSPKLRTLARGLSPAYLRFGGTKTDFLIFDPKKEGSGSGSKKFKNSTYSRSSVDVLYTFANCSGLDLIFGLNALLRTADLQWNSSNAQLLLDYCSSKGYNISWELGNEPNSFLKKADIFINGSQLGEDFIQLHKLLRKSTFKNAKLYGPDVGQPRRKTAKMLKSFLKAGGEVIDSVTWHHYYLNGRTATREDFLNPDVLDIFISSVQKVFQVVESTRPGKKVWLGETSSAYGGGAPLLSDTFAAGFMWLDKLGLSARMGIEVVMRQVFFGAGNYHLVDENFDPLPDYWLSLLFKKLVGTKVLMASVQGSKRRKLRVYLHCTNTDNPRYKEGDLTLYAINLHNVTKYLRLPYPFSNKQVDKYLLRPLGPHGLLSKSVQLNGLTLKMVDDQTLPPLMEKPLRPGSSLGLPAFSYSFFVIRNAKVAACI
# Method: (§1) FIG. 7: Ionic strength dependence (panel A), inhibition by heparin (panel B) and pH-dependence (panel C) of wild-type heparanase produced in COS7 cells (●), hepGS3 (□) and hepHyal (▴) single chain constructs produced in insect cells using the fluorimetric activity assay.
# (§2) This assay is based on the degradation of FITC-HS monitored by HPLC size exclusion chromatography. 8 μl of purified heparanase was incubated with 5 μL of FITC-HS in a 50 μl of 50 mM MES pH 6, 10% glycerol (heparanase activity buffer, HAB). The reaction mixture was incubated at room temperature for a defined period and the reaction was stopped by the addition of 50 μg of heparin. The mixture was then filtered using Ultrafree-MC centrifugal filter Devices (Millipore). 20 μl were injected on a Superdex 75™ (Pharmacia Biotech) column equilibrated in buffer 50 mM Hepes pH 7.5 150 mM Na2SO4 and connected to a Merck-Hitachi HPLC system. Fluorescent heparan sulfate degradation products were detected by an L-7485 fluorescence detector. Heparanase activity was assessed by monitoring the increase in lower molecular weight heparan sulfate species compared with the intact FITC-HS and quantified by peak area integration.
# [2] = target: T2, wild-type heparanase produced in COS7 cells (hepwt) (Homo sapiens, UniProt Q9Y251); assay: Heparin titration in the fluorimetric heparanase activity assay, wild-type enzyme; format: biochemical
# T2 construct: made in house; host or cells: COS7 cells, transient transfection with pcDNA3; partially purified on Heparin Sepharose
# T2 sequence (Q9Y251 36-109 limits assumed): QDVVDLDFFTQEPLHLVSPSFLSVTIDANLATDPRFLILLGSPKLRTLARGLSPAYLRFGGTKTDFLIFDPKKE
# T2 sequence (Q9Y251 158-543 limits assumed): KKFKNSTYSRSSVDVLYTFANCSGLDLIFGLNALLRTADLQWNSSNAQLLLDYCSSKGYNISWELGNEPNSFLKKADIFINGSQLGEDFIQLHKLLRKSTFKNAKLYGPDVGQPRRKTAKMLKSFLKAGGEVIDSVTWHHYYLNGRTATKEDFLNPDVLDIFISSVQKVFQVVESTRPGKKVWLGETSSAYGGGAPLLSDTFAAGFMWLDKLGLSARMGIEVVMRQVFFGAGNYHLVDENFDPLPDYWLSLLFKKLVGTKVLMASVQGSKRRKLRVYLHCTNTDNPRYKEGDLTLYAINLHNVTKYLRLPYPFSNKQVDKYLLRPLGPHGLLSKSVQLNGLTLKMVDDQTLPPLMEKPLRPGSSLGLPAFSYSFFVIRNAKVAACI
# Method: as §1, §2
# [3] = target: T3, hepHyal single chain construct produced in insect cells (Homo sapiens, UniProt Q9Y251, DEL119-135/E137F/E138K/K139D/K307R/L140K/L142P/R141T/V136A); assay: Heparin titration in the fluorimetric heparanase activity assay, hepHyal; format: biochemical
# T3 construct: made in house; host or cells: Sf9 insect cells (baculovirus, Bac to Bac)
# T3 sequence (Q9Y251 other isoform, or with tags, fused parts or gaps DEL119-135/V136A/E137F/E138K/K139D/L140K/R141T/L142P/K307R): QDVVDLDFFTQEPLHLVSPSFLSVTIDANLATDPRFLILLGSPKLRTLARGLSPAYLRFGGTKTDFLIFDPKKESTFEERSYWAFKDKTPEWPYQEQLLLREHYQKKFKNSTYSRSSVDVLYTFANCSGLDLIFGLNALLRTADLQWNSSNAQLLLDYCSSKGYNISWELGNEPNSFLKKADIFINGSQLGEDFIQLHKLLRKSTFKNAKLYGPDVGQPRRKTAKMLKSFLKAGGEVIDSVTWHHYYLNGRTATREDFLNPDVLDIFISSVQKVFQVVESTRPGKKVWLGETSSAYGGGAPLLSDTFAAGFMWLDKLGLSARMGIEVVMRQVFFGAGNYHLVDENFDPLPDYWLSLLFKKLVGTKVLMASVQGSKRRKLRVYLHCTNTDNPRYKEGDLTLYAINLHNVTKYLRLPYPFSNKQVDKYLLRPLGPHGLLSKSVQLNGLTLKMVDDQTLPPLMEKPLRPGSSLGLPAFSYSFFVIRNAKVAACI
# Method: as §1, §2
# [4] = target: T4, hepTEV110 (human heparanase with a TEV cleavage site E109-GSGSENLYFQ-GSG-G110 inserted between E109 and G110)
# T4 chain: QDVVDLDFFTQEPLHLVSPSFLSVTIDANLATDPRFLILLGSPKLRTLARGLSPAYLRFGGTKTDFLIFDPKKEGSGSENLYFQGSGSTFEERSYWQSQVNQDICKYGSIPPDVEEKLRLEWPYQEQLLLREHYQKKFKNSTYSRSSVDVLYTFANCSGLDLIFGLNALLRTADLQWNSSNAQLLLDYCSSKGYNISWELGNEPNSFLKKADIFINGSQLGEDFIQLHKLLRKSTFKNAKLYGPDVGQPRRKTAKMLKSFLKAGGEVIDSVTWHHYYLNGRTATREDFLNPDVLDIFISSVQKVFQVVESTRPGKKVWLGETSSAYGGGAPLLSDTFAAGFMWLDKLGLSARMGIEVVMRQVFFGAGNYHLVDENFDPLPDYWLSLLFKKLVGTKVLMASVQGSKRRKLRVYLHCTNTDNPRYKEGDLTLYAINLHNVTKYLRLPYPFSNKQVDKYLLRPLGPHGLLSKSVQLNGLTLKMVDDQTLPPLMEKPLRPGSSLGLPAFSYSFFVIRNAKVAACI
# [5] = target: T5, hepTEV110/158 (human heparanase with TEV cleavage sites between E109/G110 and Q157/K158)
# T5 chain: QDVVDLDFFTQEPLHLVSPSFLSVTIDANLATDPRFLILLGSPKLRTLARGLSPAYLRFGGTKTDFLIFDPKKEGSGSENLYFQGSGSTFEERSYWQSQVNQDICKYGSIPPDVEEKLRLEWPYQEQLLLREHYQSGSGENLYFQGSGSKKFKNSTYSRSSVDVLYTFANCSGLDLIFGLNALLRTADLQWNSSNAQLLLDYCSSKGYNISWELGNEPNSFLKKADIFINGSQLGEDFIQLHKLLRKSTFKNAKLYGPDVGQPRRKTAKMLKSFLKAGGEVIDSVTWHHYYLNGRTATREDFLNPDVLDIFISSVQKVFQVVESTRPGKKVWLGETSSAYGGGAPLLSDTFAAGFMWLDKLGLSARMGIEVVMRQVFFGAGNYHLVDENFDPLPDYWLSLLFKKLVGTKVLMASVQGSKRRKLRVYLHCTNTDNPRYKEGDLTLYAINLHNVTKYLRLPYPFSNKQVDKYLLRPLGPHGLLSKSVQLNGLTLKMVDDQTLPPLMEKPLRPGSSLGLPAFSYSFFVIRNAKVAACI
# [6] = Heparanase activation of TEV cleavage site constructs by digestion with TEV protease; format: biochemical; conditions: overnight at room temperature, TEV protease 0.5 μM, 50 mM Mes pH 6.0
# Method: Heparanase activity of these samples was assessed using the fluorimetric method.
# The constructs having TEV cleavage sites at positions 109/110 and 109/110+157/158 were expressed, purified on a heparin affinity column and digested overnight at room temperature with TEV protease (0.5 μM) in 50 mM Mes pH 6.0, 10% glycerol, 0.5 mM EDTA.
# as §2
# [7] = cited from earlier work
molecule,measurement,setting,value
heparin,"IC50 of heparin, hepGS3",[1],1.1 µg/mL
same,"IC50 of heparin, hepwt",[2],0.9 µg/mL
same,"IC50 of heparin, hepHyal",[3],1.5 µg/mL
tobacco etch virus (TEV) protease (protein) GESLFKGPRDYNPISSTICHLTNESDGHTTSLYGIGFGPFIITNKHLFRRNNGTLLVQSLHGVFKVKNTTTLQQHLIDGRDMIIIRMPKDFPPFPQKLKFREPQREERICLVTTNFQTKSMSSMVSDTSCTFPSSDGIFWKHWIQTKDGQCGSPLVSTRDGFIVGIHSASNFTNTNNYFTSVPKNFMELLTNQEAQQWVSGWRLNADSVLWGGHKVFMSKPEEPFQPVKEATQLMNELVYSQ,"proteolytic processing by TEV protease (overnight digestion, Western blot)",[4],Complete processing was observed in both cases
same,"proteolytic processing by TEV protease (overnight digestion, Western blot)",[5],Complete processing was observed in both cases
"109/110+157/158: heparanase with TEV cleavage sites between E109/G110 and Q157/K158, SEQ ID NOs:29 and 32 (protein) QDVVDLDFFTQEPLHLVSPSFLSVTIDANLATDPRFLILLGSPKLRTLARGLSPAYLRFGGTKTDFLIFDPKKEGSGSENLYFQGSGSTFEERSYWQSQVNQDICKYGSIPPDVEEKLRLEWPYQEQLLLREHYQSGSGENLYFQGSGSKKFKNSTYSRSSVDVLYTFANCSGLDLIFGLNALLRTADLQWNSSNAQLLLDYCSSKGYNISWELGNEPNSFLKKADIFINGSQLGEDFIQLHKLLRKSTFKNAKLYGPDVGQPRRKTAKMLKSFLKAGGEVIDSVTWHHYYLNGRTATREDFLNPDVLDIFISSVQKVFQVVESTRPGKKVWLGETSSAYGGGAPLLSDTFAAGFMWLDKLGLSARMGIEVVMRQVFFGAGNYHLVDENFDPLPDYWLSLLFKKLVGTKVLMASVQGSKRRKLRVYLHCTNTDNPRYKEGDLTLYAINLHNVTKYLRLPYPFSNKQVDKYLLRPLGPHGLLSKSVQLNGLTLKMVDDQTLPPLMEKPLRPGSSLGLPAFSYSFFVIRNAKVAACI",activation of heparanase by TEV protease treatment,[6],activated
"50 kDa protein: mature 50 kDa human heparanase fragment, SEQ ID NO:16 (protein, Human) KKFKNSTYSRSSVDVLYTFANCSGLDLIFGLNALLRTADLQWNSSNAQLLLDYCSSKGYNISWELGNEPNSFLKKADIFINGSQLGEDFIQLHKLLRKSTFKNAKLYGPDVGQPRRKTAKMLKSFLKAGGEVIDSVTWHHYYLNGRTATREDFLNPDVLDIFISSVQKVFQVVESTRPGKKVWLGETSSAYGGGAPLLSDTFAAGFMWLDKLGLSARMGIEVVMRQVFFGAGNYHLVDENFDPLPDYWLSLLFKKLVGTKVLMASVQGSKRRKLRVYLHCTNTDNPRYKEGDLTLYAINLHNVTKYLRLPYPFSNKQVDKYLLRPLGPHGLLSKSVQLNGLTLKMVDDQTLPPLMEKPLRPGSSLGLPAFSYSFFVIRNAKVAACI",activity if expressed as such in mammalian cells,[7]; Hulett et al. 1999,inactive
same,specific activity relative to the unprocessed 65 kDa precursor,[7]; Vlodavsky et al. 1999,at least 100 fold
"109/110: heparanase with TEV protease cleavage site between E109 and G110, protein SEQ ID NO:31 (protein, hep TEV110) MLLRSKPALPPPLMLLLLGPLGPLSPGALPRPAQAQDVVDLDFFTQEPLHLVSPSFLSVTIDANLATDPRFLILLGSPKLRTLARGLSPAYLRFGGTKTDFLIFDPKKEGSGSENLYFQGSGSTFEERSYWQSQVNQDICKYGSIPPDVEEKLRLEWPYQEQLLLREHYQKKFKNSTYSRSSVDVLYTFANCSGLDLIFGLNALLRTADLQWNSSNAQLLLDYCSSKGYNISWELGNEPNSFLKKADIFINGSQLGEDFIQLHKLLRKSTFKNAKLYGPDVGQPRRKTAKMLKSFLKAGGEVIDSVTWHHYYLNGRTATREDFLNPDVLDIFISSVQKVFQVVESTRPGKKVWLGETSSAYGGGAPLLSDTFAAGFMWLDKLGLSARMGIEVVMRQVFFGAGNYHLVDENFDPLPDYWLSLLFKKLVGTKVLMASVQGSKRRKLRVYLHCTNTDNPRYKEGDLTLYAINLHNVTKYLRLPYPFSNKQVDKYLLRPLGPHGLLSKSVQLNGLTLKMVDDQTLPPLMEKPLRPGSSLGLPAFSYSFFVIRNAKVAACI",activation of heparanase by TEV protease treatment,[6],not sufficient for eliciting activation
